The source of these data is US20240034816A1 (Sanofi, published 2024).

In assay [1] the target is T1, human CD16a (human FcγRIIIA), V isoform (human, UniProt P08637 17-208).
T1 construct: also called HuFcyRIIIaV; CD16a (V176)
Nature of the assay: SPR (Biacore T200), His-tagged huCD16a captured by anti-His antibody on CM5 chip, antibody injected at 5.8-3000 nmol/L, steady state fit. The text has this:
All analyte concentrations were run in duplicate together with multiple buffer blanks for double referencing.
For orientation: Surface plasmon resonance follows binding to a sensor surface in real time, without labels.

The next assay has as its target T2, cyno BCMA (PPB-17990) (cynomolgus, UniProt A0A2K5UD97 1-53).
T2 construct: also called cynomolgus BCMA
Kind of assay: SPR (Biacore 8K), NKCE captured by anti-human Fc, antigen as analyte, 1:1 model; Experiment No 2. On the procedure:
(§1) Measurements were performed in multicycle kinetics experiments for each antibody using a Biacore 8K instrument. In each multicycle experiment the antibodies were captured via an anti-hum a Fc antibody immobilized on a series S CM5 sensor chip (human antibody capture kit, Cytiva, Uppsala, Catalog No. BR1008-39).
(§2) The antigens, diluted as described above (concentration range 0.1 nM to 50 nM), were injected at a flow rate of 60 μL/min for 240 sec followed by a dissociation phase of 400 sec. All analyte concentrations were run in duplicate together with multiple buffer blanks for double referencing. Regeneration of the capture surface was performed with regeneration solution (3 mol/L MgCl2) for 60 sec at 30 μL/min. Binding kinetics data were evaluated with the Biacore 8K Evaluation Software version 1.1.1.7442 using a 1:1 binding model with mass transport limitation.

For assay [2], the target named is T3, recombinant human NKp46 extracellular domain (Gln22-Asn255) with C-terminal 6xHis tag (human, UniProt O76036 22-255).
T3 construct: range 22-255; also called huNKp46
T3 sequence (O76036 other isoform, or with tags, fused parts or gaps limits assumed): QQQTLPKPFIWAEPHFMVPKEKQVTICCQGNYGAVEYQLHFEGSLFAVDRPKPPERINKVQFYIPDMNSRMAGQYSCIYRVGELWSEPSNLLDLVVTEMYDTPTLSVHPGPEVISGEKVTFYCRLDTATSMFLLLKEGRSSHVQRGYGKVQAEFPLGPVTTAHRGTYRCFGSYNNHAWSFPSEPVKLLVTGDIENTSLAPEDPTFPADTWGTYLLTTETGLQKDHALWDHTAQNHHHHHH
The description is as above. On the procedure: as §1, §2

The target in assay [3] is T4, recombinant cynomolgus NKp46 extracellular domain with C-terminal Flag-M2 tag (cynomolgus, UniProt Q95JB9 22-254).
T4 construct: range 22-254; also called cyno NKp46; not shown: C-terminal Flag-M2 tag
T4 sequence (Q95JB9 22-254): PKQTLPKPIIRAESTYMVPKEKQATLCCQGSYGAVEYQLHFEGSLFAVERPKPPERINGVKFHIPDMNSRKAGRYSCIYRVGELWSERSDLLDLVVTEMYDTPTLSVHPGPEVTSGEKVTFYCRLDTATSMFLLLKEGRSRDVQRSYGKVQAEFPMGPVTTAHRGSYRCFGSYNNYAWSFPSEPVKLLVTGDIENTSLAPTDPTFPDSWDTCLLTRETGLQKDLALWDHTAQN
The assay is described as above. On the procedure:
as §1, §2

In assay [4] the target is T5, human CD64 (human FcγRI) (human, UniProt P12314 16-292, limits assumed).
T5 construct: also called HuFcyRI
T5 sequence (P12314 16-292 limits assumed): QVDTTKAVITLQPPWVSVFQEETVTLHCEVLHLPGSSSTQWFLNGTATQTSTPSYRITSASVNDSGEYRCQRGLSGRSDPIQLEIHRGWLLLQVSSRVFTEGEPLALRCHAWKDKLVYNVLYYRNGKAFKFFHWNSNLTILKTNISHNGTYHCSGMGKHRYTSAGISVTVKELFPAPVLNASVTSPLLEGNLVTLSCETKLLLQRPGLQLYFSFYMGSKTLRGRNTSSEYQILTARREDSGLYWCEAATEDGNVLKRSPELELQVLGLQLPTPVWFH
Nature of the assay: SPR, fit 1:1 Binding, Exp No 1.

The target in assay [5] is T5, human CD64 (human FcγRI). Nature of the assay: SPR, fit 1:1 Binding, mean of 3 experiments.
The target in assay [6] is T5, human CD64 (human FcγRI). Nature of the assay: SPR, fit 1:1 Binding, Exp No 2.
Assay [7] addresses T6, human NKp46 on NK cells purified from PBMC of healthy donors (human, UniProt O76036 22-304).
T6 construct: whole, on cells; also called NKp46 on donor NK cells
Kind of assay: flow cytometry titration on resting human NK cells from healthy donors, detection with goat anti-human IgG Fcγ-PE; representative titration; NK cells also carry CD16a. As to the method:
(§3) After staining, cells were resuspended in BD Cellfix and analyzed by flow cytometry. Parameters were recorded and analysed with FlowJo software. Staining EC50 values were calculated with GraphPad prism using 4 parameter logistics non-linear regression model.
On the technique in general: A flow cytometer gives signals particle by particle.

Assay [8] has as its target T7, cynomolgus CD32b (cynomolgus).
T7 construct: also called CyFcyRIIb
Kind of assay: SPR, fit Steady State Affinity, Exp No 1.

Assay [9] addresses T8, human CD32a (human FcγRIIA) (human, UniProt P12318 34-217, limits assumed).
T8 construct: also called HuFcyRIIa
T8 sequence (looked up): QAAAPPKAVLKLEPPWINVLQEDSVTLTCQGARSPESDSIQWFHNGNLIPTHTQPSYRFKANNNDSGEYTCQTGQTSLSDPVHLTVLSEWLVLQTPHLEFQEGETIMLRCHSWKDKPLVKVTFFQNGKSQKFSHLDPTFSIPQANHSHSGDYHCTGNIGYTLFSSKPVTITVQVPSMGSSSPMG
Nature of the assay: SPR, fit Steady State Affinity, Exp No 1.

Assay [10] has as its target T9, cynomolgus CD32a (cynomolgus).
T9 construct: also called CyFcyRIIa
Nature of the assay: SPR, fit Steady State Affinity, Exp No 1.

Assay [11] addresses T7, cynomolgus CD32b. Kind of assay: SPR, fit Steady State Affinity, mean of 3 experiments.
The target in assay [12] is T8, human CD32a (human FcγRIIA). Described as above.
Assay [13] deals with T10, human CD16b (human FcgRIIIB) (human, UniProt O75015 17-200, limits assumed).
T10 construct: also called HuFcyRIIIb
T10 sequence (O75015 17-200 limits assumed): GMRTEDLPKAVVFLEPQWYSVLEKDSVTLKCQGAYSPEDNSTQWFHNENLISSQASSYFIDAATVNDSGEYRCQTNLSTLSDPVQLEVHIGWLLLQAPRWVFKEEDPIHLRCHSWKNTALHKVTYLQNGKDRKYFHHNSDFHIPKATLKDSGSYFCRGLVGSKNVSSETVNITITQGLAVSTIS
The assay is described as above.

For assay [14], the target named is T9, cynomolgus CD32a. The assay is described as above.
Assay [15] addresses T11, human CD32b (human FcγRIIB) (human, UniProt P31994 43-217, limits assumed).
T11 construct: also called HuFcyRIIb
T11 sequence (looked up): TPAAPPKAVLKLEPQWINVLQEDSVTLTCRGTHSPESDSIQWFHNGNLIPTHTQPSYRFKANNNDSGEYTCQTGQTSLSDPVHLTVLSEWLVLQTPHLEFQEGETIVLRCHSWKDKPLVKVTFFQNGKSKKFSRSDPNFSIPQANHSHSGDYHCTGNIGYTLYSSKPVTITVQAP
Described as above.

Assay [16] has as its target T12, human BCMA on RPMI 8226 multiple myeloma cells (human, UniProt Q02223 1-184).
T12 construct: whole, on cells; also called BCMA on RPMI cells
T12 sequence (looked up): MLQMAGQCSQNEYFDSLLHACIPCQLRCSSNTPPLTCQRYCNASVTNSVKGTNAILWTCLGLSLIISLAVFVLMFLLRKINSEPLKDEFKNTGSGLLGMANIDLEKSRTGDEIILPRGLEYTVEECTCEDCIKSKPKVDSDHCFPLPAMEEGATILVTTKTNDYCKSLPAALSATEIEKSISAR
Kind of assay: flow cytometry titration on RPMI 8226 cells, detection with goat anti-human IgG Fcγ-PE; representative titration. On the procedure:
as §3

T2 sequence (A0A2K5UD97 entry or part of it): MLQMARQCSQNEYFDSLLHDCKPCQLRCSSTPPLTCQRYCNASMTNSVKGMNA
T6 sequence (O76036 22-304): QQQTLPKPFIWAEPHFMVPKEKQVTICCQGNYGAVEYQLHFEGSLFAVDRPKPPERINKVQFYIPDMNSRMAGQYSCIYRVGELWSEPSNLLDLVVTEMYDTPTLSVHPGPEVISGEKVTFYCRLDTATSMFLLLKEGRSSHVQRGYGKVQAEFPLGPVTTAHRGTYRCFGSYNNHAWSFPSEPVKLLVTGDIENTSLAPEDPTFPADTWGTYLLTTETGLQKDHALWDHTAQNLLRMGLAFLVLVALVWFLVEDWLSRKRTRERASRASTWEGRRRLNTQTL
T1 sequence (P08637 17-208 F176V limits assumed): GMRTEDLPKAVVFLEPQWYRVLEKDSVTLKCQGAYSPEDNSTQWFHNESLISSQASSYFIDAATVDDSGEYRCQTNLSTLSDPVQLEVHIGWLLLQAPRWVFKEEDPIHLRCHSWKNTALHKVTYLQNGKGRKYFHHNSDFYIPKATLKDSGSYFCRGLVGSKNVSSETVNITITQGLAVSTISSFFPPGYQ

B1: NKp46-BCMA_Fc-ADE-DSB NKCE (bispecific antibody, human IgG1, kappa)
light: QTVVTQEPSLTVSPGGTVTLTCASSTGTVTPSNYANWVQQKPGQAFRGLIGDNNSRPPGTPARFSASLLGGKAALTLSGVQPEDEAEYYCALWFGNQWVFGGGTKLTVLGGGGSGGGGSDIQMTQSPSSLSASVGDRVTITCRASQDISNYLNWYQQKPGKAPKLLIYYTSRLHSGVPSRFSGSGSGTDFTFTISSLQPEDIATYFCQQGNTRPWTFGGGTKVEIKGGGGSGGGGSRTVAAPSVFIFPPSDEQLKSGTASVVCLLNNFYPREAKVQWKVDNALQSGNSQESVTEQDSKDSTYSLSSTLTLSKADYEKHKVYACEVTHQGLSSPVTKSFNRGEC
heavy: QVQLVQSGAEVKKPGSSVKVSCKASGYTFSDYVINWVRQAPGQGLEWMGEIYPGSGTNYYNEKFKAKATITADKSTSTAYMELSSLRSEDTAVYYCARRGRYGLYAMDYWGQGTTVTVSSQVQLVESGGGVVQPGRSLRLSCAASGFTFSNFGMHWVRQAPGRGLEWVAVIWSDETNRYYADSVKGRFTVSRDNVKSTVYLQMNSLISEDTAVYYCARDQQYCSSDSCFTWFDPWGQGTLVTVSSASTKGPSVFPLAPSSKSTSGGTAALGCLVKDYFPEPVTVSWNSGALTSGVHTFPAVLQSSGLYSLSSVVTVPSSSLGTQTYICNVNHKPSNTKVDKKVEPKSCDKTHTCPPCPAPELLAGPDVFLFPPKPKDTLMISRTPEVTCVVVDVSHEDPEVKFNWYVDGVEVHNAKTKPCEEQYNSTYRCVSVLTVLHQDWLNGKEYKCKVSNKALPAPEEKTISKAKGQPREPQVYTLPPCRDELTKNQVSLWCLVKGFYPSDIAVEWESNGQPENNYKTTPPVLDSDGSFFLYSKLTVDKSRWQQGNVFSCSVMHEALHNHYTQKSLSLSPG
chain: DKTHTCPPCPAPELLAGPDVFLFPPKPKDTLMISRTPEVTCVVVDVSHEDPEVKFNWYVDGVEVHNAKTKPCEEQYNSTYRCVSVLTVLHQDWLNGKEYKCKVSNKALPAPEEKTISKAKGQPREPQVCTLPPSRDELTKNQVSLSCAVKGFYPSDIAVEWESNGQPENNYKTTPPVLDSDGSFFLVSKLTVDKSRWQQGNVFSCSVMHEALHNRFTQKSLSLSPG
For the molecule B1, the Kd amounted to 165 nM in assay [1]; 0.3 nM with cyno BCMA (PPB-17990); 13.2 nM in [2]; 16.2 nM in [3]; 0.32 nM in the assay with human CD64 (human FcγRI) [4]; 0.32 nM in the assay with human CD64 (human FcγRI) [5]. In addition, the equilibrium dissociation constant (Kd) in the assay with human CD64 (human FcγRI) [6] was determined as 0.27 nM; with cynomolgus CD32b [8], 884 nM; in assay [9], 415 nM; with cynomolgus CD32a [10], 1350 nM; with cynomolgus CD32b [11], 1080 nM; in assay [12], 678 nM. For the same molecule, the figures for the Kd (in assay [13]; with cynomolgus CD32a [14]; in [15]) were 1760 nM, 1500 nM and 1280 nM, respectively. Further, the koff with cyno BCMA (PPB-17990) was found to be 5.8e-05 s⁻¹; in assay [2] it was 0.0018 s⁻¹; in assay [3], 0.0034 s⁻¹. The kon stood at 180000 M⁻¹ s⁻¹ with cyno BCMA (PPB-17990), 140000 M⁻¹ s⁻¹ in assay [2] and 210000 M⁻¹ s⁻¹ in [3]. Moreover, the concentration for a half-maximal effect (EC50 (read off the curve)) in assay [7] is ~0.9 µg/mL; in assay [16], ~1 µg/mL.

What is called Kd is a measure of binding affinity in units of concentration. The koff is the first-order rate constant of dissociation. One may read the kon as a measure of how fast the partners come together. Broadly, the EC50 (read off the curve) is the concentration giving half of the maximal effect. Low values mean greater potency, high ones weaker potency.
